# Results taken from patent US12534540B2, “CYP1A1-targeted monoclonal antibody with reactivity across vertebrate taxa” (Clemson University Research Foundation, priority 2023, dated 2026).
# Like-named read-outs stand apart in the source and are kept apart here.
# T1: CYP1A (Mus musculus, UniProt P00184)
# T1 sequence (P00184 1-524): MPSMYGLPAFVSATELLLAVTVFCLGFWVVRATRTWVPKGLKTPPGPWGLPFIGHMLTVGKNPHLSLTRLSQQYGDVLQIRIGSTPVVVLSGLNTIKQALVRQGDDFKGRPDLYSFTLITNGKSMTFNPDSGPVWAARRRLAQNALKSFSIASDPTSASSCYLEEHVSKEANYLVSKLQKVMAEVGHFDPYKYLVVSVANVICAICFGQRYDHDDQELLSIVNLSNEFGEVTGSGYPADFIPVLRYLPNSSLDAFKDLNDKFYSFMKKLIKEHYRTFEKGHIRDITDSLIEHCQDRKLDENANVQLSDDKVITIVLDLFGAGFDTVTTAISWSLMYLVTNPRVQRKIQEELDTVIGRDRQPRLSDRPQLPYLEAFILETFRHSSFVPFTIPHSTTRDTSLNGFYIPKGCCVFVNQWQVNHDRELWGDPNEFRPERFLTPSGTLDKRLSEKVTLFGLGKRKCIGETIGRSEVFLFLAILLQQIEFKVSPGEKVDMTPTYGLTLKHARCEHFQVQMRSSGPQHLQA
# B1: mAb CRC4: zebrafish CYP1A-targeted mouse monoclonal antibody; VH SEQ ID NO:17, VL SEQ ID NO:20, CDRs SEQ ID NOs:28-33 (antibody, V domains shown)
# VH: QVTLKESGPGILQPSQTLSLTCSFSGFSLSTSGMGVNWIRKPSGKGLEWLAHIFWDDDKRYNPSLKSRLTISKDTSRNQVFLMITSVDTADTATYYCASLAMDYWGQGTSVTVSS
# VL: DIVMTQGASSVTVTPGESVSISCRSSKSLLHSNGRTFLYWFLQRPGQSPQLLIYRMSNLASGVPDRVSGSGSGTAFTLRISRVEAEDVGVYYCMQHLEYPFTFGGGTRLELK
# Experiments:
# CYP1A [1] = biological target: T1, CYP1A
# Procedure: (§1) Grossly dissected archived tissues (fixed and stored at 4° C. in 70% ethanol) were processed and embedded in ParaPlast Extra. Newly embedded tissues were then sectioned and affixed to charged slides for immunohistochemistry. Mouse liver tissues used for this study were from previous studies wherein mice were exposed to 1 mg/kg PCB-126 prior to tissue fixation. Archived rainbow trout livers (and microsomes stored at −80° C. from beta-naphthoflavone ([…])-treated animals from a previous study (Rice et al. 1998 Mar. environ. Res. 46:87-91) were used for immunohistochemistry and immunoblotting. Archived liver tissue from Gulf killifish collected from sites affected by the Deepwater Horizon spill (DHOS) were analyzed for CYP1A alongside livers from a lab-held colony of CYP1A-recalcitrant Gulf killifish, which is used as a molecular control (naturally acquired CYP1A knockdown) (Oziolor et al. 2016 Aquat. Toxicol. 175:222-231). Finally, previously analyzed embryonic chicken livers exposed to airborne volatiles from DHOS oil were included for additional species comparison.
# (§2) Zebrafish (strain AB) exposed to PCB-126 (Ulra Scientific) were also used for this study. Zebrafish were housed at the former Clemson Institute of Environmental Toxicology, Pendleton SC and maintained under Clemson University IACUC approved methods. Two juvenile male and two juvenile female zebrafish (40 dpf) were exposed for 48 h to either 10 μM PCB-126 or 0.10% DMSO in 1 L glass bottles containing maintenance water from the recirculating system and supplied with gentle aeration. Following exposure, the 4 fish per treatment were euthanized on ice with buffered Tricaine®, their abdominal cavities opened, and placed in 10% aqueous buffered zinc formalin (Z-Fix, Anatech, Ltd., Battle Creek, MI, USA) for 2 days, and the fixative replaced with 70% ethanol and stored at 4° C. Prior to processing, zebrafish were decalcified in 0.35 M EDTA, pH 7.8 at room temperature (RT) for 6 days, then processed for microtomy as above. Fish and chicken tissue IHC was performed using a horse-anti-mouse IgG VectaLabs ABC-Elite kit (PK-6102), while mouse tissue IHC was performed using the mouse-on-mouse (M.O.M.) anti-mouse IgG VectaLabs ABC-Ultra kit (BMK-2202)
# (§3) Whole zebrafish tissues were sectioned at 7-9 μm and mouse, trout, killifish, and chicken tissues were sectioned at 4-5 μm on a Microm 325 rotary microtome. […] Additional screening assays included isotype controls.
# CYP1A [2] = tested on: CYP1A
# Procedure: as §1, §2, §3
# [3] = biological target: core vertebrate CYP1A sequence IRDITSLI (SEQ ID NO:35) (Homo sapiens, UniProt P04798); experiment: ELISA against conserved core CYP1A peptide; assay type: binding; details: FIG. 1 panel B
# Procedure: Using additional screening approaches, ELISAs were carried out to determine if either of the three mAbs would recognize the core vertebrate CYP1A sequence [sequence] (SEQ ID NO:35)). […] Based on the general rule of thumb that confluent supernatants contain approximately 30 μg/mL of specific antibody, a total of 60 μg of the peptide in 100 μL PBS as the highest concentration was serially diluted and 50 μL of each dilution were mixed with 50 μL confluent supernatants to yield 100 μL of total mixture for screening ELISA plates coated with the original zebrafish peptide. This mixture of hybridoma supernatant and peptide dilutions was allowed to incubate overnight at 4° C. The next day these mixtures of 100 μL total sample were mixed by gentle agitation and added to zebrafish CYP1A1 peptide-pre-coated ELISA plates and incubated for 2 h at RT. After extensive washings with PBST, the plates were incubated with goat anti-mouse IgG conjugated with alkaline phosphatase for 2 h, washed extensively, and developed and quantified at 405 nm and the data recorded.
# CYP1A [4] = experiment: Tissue immunohistochemistry, Gulf killifish liver; details: crude oil-exposed adult gulf killifish vs genetically resistant population; FIG. 3 panels E and F
# Procedure: as §1
# (§4) Zebrafish (strain AB) exposed to PCB-126 (Ulra Scientific) were also used for this study. Zebrafish were housed at the former Clemson Institute of Environmental Toxicology, Pendleton SC and maintained under Clemson University IACUC approved methods. […]
# CYP1A [5] = experiment: Tissue immunohistochemistry, rainbow trout liver; details: rainbow trout treated with 3-NF; FIG. 3 panels G and H
# Procedure: as §1, §4
# [6] = tested on: induced CYP1A1 across vertebrate taxa; assay type: binding
# Procedure: Screening mAbs against cell line lysates: […] This medium also supports the growth of frog XLK-WG cells (ATCC, Manassas, VA, USA). Other cells and tissues used for testing and screening are outlined in Table 2. Arochlor 1254-induced and non-induced rat liver S9 fractions were thawed immediately upon receipt from the supplier and prepared for SDS-PAGE-immunoblotting by boiling for 7 min in reducing sample buffer (Thermo Fisher J61337.AD) containing 50 μM PMSF. Commercially sourced HEK cell lysates over-expressing recombinant human CYP1A1 (Origene, Rockville, MD, USA) were prepared similarly. […]-1, and HEPA1C1C7 cells were grown to near confluence in 6-well plates ([…], Corning). Plates seeded with ZFL cells and PLHC-1 cells were sealed with parafilm and kept in sealed containers to avoid external CO2. Cells were treated for 48 h with 10 μM PCB-126 (CAS 57465-28-8, Ultra Scientific) dissolved in DMSO or 0.01% DMSO as a carrier control. XLK-WG cells were grown to near confluence in sealed T-75 flasks, then treated for 12 h with 50 nM of the AHR ligand 6-Formylindolo [3,2-b] carbazole (FICZ) (CAS 172922-91-7, Tocris Biosciences, Bristol, UK) in DMSO or 0.01% DMSO, and again for an additional 12 h with the same. […] Overlying supernatants were removed and transferred to clean tubes and the protein content quantified. […]
# [7] = tested on: zebrafish CYP1A peptide used for immunizations
# Chain of zebrafish CYP1A peptide used for immunizations (as listed by the source): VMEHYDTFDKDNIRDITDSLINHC
# From the text: Primary hybridoma supernatants were then screened by ELISA against unconjugated peptide for a minimal signal of three-fold optical density readings above wells probed with an irrelevant antibody (mAb 3F9 against major vault protein), then cloned by limiting dilution for further testing.
molecule,measurement,setting,value
B1,CYP1A detection in liver by IHC,CYP1A [1],easily detected in PCB-126-exposed mouse livers but not unexposed controls
same,CYP1A detection in liver by IHC,CYP1A [2],easily detected
same,CYP1A staining intensity in liver by IHC,CYP1A [2],most intense staining
same,staining after antigen retrieval,CYP1A [2],more favorable staining
same,staining intensity of chicken tissues compared with mAb C10-7,CYP1A [2],same intensity as seen using mAb C10-7
same,recognition of core vertebrate CYP1A peptide by ELISA,[3],recognized this peptide sequence
same,CYP1A detection in liver by IHC,CYP1A [4],easily detected in adult gulf killifish but not in individuals from a genetically resistant population
same,CYP1A staining intensity in liver by IHC,CYP1A [5],most intense staining
same,recognition of treatment-induced CYP1A protein by immunoblotting,[6],recognized by mAb CRC4 across all vertebrate taxa examined
same,ELISA reactivity against zebrafish CYP1A peptide (selection criteria),[7],meeting selection criteria
